Data taken from the supplement of paper PMC9170038.

Test system: MS2 coat protein
Assay: apparent KD of MS2 coat protein; designed switch direction (-1 OFF switch, 1 ON switch): -1; higher = weaker reporter binding
In short: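 On Illumina chips, designed RNA switches with common flanks were made by stalled E. coli RNA polymerase. Titrations with SNAP-549-labelled MS2 coat protein, doubling from 0.7 or 1.5 nM to 3 µM, were done with no input, with 200 uM small-molecule ligand, or with an oligonucleotide input. Apparent KD is the median per design over clusters, from curve fits of normalised cluster fluorescence.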

[1] = Eterna round: R95, input ligand: microRNA oligo, concentration not stated
[2] = Eterna round: R95, input ligand: FMN 200 uM
[3] = Eterna round: R95, input ligand: none
[4] = input ligand: microRNA oligo, concentration not stated

| Sequence | apparent KD of MS2 coat protein [1] | apparent KD of MS2 coat protein [2] | apparent KD of MS2 coat protein [3] | apparent KD of MS2 coat protein (input ligand: FMN 200 uM) | apparent KD of MS2 coat protein [4] | apparent KD of MS2 coat protein (input ligand: none) |
| --- | --- | --- | --- | --- | --- | --- |
| CCGGAAAUGAAGGAUAUAGGUGUCGAUAGACACCUAGAAGGUCAUACAUGAGGAUCACCCAUGUGUCCUACCGG [Fiskers Ex 6 - 7] (puzzle: Exclusion 6) | 13.9 nM | – | – | – | – | – |
| CCGGAAAUGCAGGAUAUCGUAUCGGAUACGAUACGAGAAGGGUAUACAUGAGGAUCACCCAUGUGUCCUGCCGG [Fiskers Ex 6 - 54] (puzzle: Exclusion 6) | 39.8 nM | – | – | – | – | – |
| CCGGAUAUGCAGGAUAUCGUAUCGGAGACGAUACGAGAAGGGUAUACAUGAGGAUCACCCAUGUGCCUUACCGG [Mat - Exclusion 6 - Eli Mod - D82] (puzzle: Exclusion 6) | 19 nM | 23.3 nM | 20.7 nM | – | – | – |
| CCGGUUGGCGCAGGAUAUACAUGAGGAUCACCCAUGUUCAUGAGGAUCACCUAUGAGUUUUUGUUGUAGAAGGGUGGCCCGGCC (Eterna round: R96, puzzle: Exclusion NG 2) | – | – | – | 53.1 nM | 39.1 nM | 52.9 nM |
| CCGUGCACGCUGCGGUCCUACAUGAGGAUCACCCAUGUGGUCUGGUGGCGUGGGUCGCCGGACUUGGCUCGUCUUGU [salish99_S_TOV1_R5_020] (Eterna round: R97, puzzle: Sensor, turn-off variant 1) | – | – | – | 19.7 nM | – | 20.5 nM |
| CCGUUCCGUGUAGGAUAUUGGCCUACCACGGGCCGAGAAGGACAUGAGGAUCACCCAUGUAUGCUAUUAUCGCGCGUGGCGCCC [Design 99] (Eterna round: R96, puzzle: Exclusion NG 1) | – | – | – | 24 nM | 15.4 nM | 21.8 nM |
| CCUAGUUGGUAAGGAUAUCCUACACUGUUCUGACCCGGGCAAGCUACAUGAGGAUCACCCAUGUGGGAGAAGGUGCGUCAACGC [Design 13] (Eterna round: R96, puzzle: Exclusion NG 2) | – | – | – | 30.8 nM | 22.2 nM | 31.2 nM |
| CCUCAACAUGAGGAUCACCCAUGUCAGGAUAUGCGAAUUUCAUCAAAAGAUGAAAUUUGCAGAAGGGACUAAGC [Omei Ex1 A33] (Eterna round: R97, puzzle: Exclusion 1) | – | – | – | 303 nM | – | 133 nM |
| CCUCAGAUGUAGGAUAUCGCCCAGACAUUGCGGCGAGAAGGACAAACAUGAGGAUCACCCAUGUUAGUUUAGCA [Eternabot (L2) Solution 92] (Eterna round: R97, puzzle: Exclusion 6) | – | – | – | 257 nM | – | 32.3 nM |
| CCUCCACAUGAGGAUCACCCAUGUCAGGAUAUCGUGUGCGCGUUUUCGGUCUUUCGCGCGAGAAGGGACGUCUG (puzzle: Exclusion 1) | 24 nM | – | – | – | – | – |
| CCUCCACAUGAGGAUCACCCAUGUCAGGAUAUCGUGUGUGCGUUUUCGGUCUUUCGCGCGAGAAGGGACGUCUG (puzzle: Exclusion 1) | 28.8 nM | – | – | – | – | – |
| CCUCCGGCAGGAUAUGCAGGGAGGAUGUUGUGUUAUUGGUAACAUGAGGAUCACCCAUGUAGAAGGGCCAAUAC [Eternabot (L2) Solution 42] (Eterna round: R97, puzzle: Exclusion 2) | – | – | – | 17.9 nM | – | 15 nM |
| CCUCUACAUGAGGAUCACCCAUGUGAGGAUAUCAAAGCCAGAACGGAUCUCUGGCCCAUGAGAAGGUGCAUGGA [EX1 A.2] (Eterna round: R97, puzzle: Exclusion 1) | – | – | – | 119 nM | – | 22.3 nM |
| CCUCUACAUGAGGAUCACCCAUGUGAGGAUAUCCUGCGAGGAUCAAAAGAUCCUCGUGGGAGAAGGCAUAUGUA [Omei Ex1 A2] (Eterna round: R97, puzzle: Exclusion 1) | – | – | – | 30.6 nM | – | 24.8 nM |
| CCUGCACAUGAGGAUCACCCAUGUCAGGAUAUCUCGCCGCGAAGAGCAACACGGUAUUAGAGAAGGGACACGGG [Bimavees] (puzzle: Exclusion 1) | 24.5 nM | – | – | – | – | – |
| CCUGCGGACAAAGGAUAUUGCGGUGACCGGCUCGGCGUACCGAGCCUACAUGAGGAUCACCCAUGUAAGAAGGUUGUCGCUGGU [JL ViennaUCT Qudice mod 2] (Eterna round: R96, puzzle: Exclusion NG 2) | – | – | – | 104 nM | 19.1 nM | 24.8 nM |

| Sequence | apparent KD of MS2 coat protein [1] | apparent KD of MS2 coat protein [2] | apparent KD of MS2 coat protein [3] | apparent KD of MS2 coat protein (input ligand: FMN 200 uM) | apparent KD of MS2 coat protein [4] | apparent KD of MS2 coat protein (input ligand: none) |
| --- | --- | --- | --- | --- | --- | --- |
| CCUUCUCCACAGGAUAUGCUCAUCUAAUGAUGAGCAGAAGGGUGGACAUGAGGAUCACCCAUGUUUAUCAAUGG [Omei Ex6 D2] (Eterna round: R97, puzzle: Exclusion 6) | – | – | – | 589 nM | – | 428 nM |
| CCUUGACAUGAGGAUCACCCAUGUGAGGAUAUGAUGCGAUCGUCGAAAGACGAUAGCAUCAGAAGGCACAUAUG [Fiskers Ex 1 - 8] (Eterna round: R96, puzzle: Exclusion 1) | – | – | – | 91.8 nM | 12.8 nM | 24.4 nM |
| CCUUGACAUGAGGAUCACCCAUGUGAGGAUAUGAUGCGAUCGUCGAAAGACGAUAGCAUCAGAAGGCACAUAUG [Fiskers Ex 1 - 8] (puzzle: Exclusion 1) | 25.2 nM | – | – | – | – | – |
| CCUUGUCUGAAGGAUAUCCGCCGAAAAGGCAAGGGAGAAGGUUAGACAUGAGGAUCACCCAUGUGCCGGUGUAA [EX6 A.3] (Eterna round: R97, puzzle: Exclusion 6) | – | – | – | 44.2 nM | – | 25.5 nM |
| CCUUUGUCAGGAUAUCAGAACGCGCUCGUAGGGAGCGCAAAUGAGAAGGGACAUGAGGAUCACCCAUGUAAAGA [Gequleon] (puzzle: Exclusion 4) | 43.6 nM | 204 nM | 48.2 nM | – | – | – |
| CGAAUGUCAGGAUAUCGUGCAUACAACGAAAGUUCUAUGUGCGAGAAGGGACAUGAGGAUCACCCAUGUCUUCG [Omei Ex4 A14] (Eterna round: R97, puzzle: Exclusion 4) | – | – | – | 75.6 nM | – | 27.1 nM |
| CGACUGGUAGGAUAUACAUGAGGAUCACCCAUGUACCUGACAUGAGAAUAAACCAUCGGUAGAAGGGCUAAGUC [Eternabot (L2) Solution 79] (Eterna round: R97, puzzle: Exclusion 3) | – | – | – | 21.8 nM | – | 21.3 nM |
| CGAGUGUAAGGAUAUUCGGCGCCAGAGAACGAUCUGACGUAGAAGAAGGUACAUGAGGAUCACCCAUGUGGUUA [Geinzarace] (puzzle: Exclusion 4) | 102 nM | 41.6 nM | 204 nM | – | – | – |
| CGAUAAAGCUGAGGAUAUGAGGAGAGAGAGAGAUCAGAAGGCAGACAUGAGGAUCACCCAUGUGAGUUCUCGAAAUUAAAUAUU [Prohibition 48 - Jieux - Exclusion NG 1] (Eterna round: R96, puzzle: Exclusion NG 1) | – | – | – | 225 nM | 47 nM | 57.5 nM |
| CGAUGAGGAGUGAGGAUAUCGUGUUCGAAAGAACGUGAGAAGGCACAUGAGGAUCACCCAUGUGAUACUUGUCG [Omei Ex4B A15] (Eterna round: R97, puzzle: Brourd's mod of Exclusion 4) | – | – | – | 60.9 nM | – | 19.6 nM |
| CGAUGCACGAGUCCACAUGAGGAUCACCCAUGUCGUGUUAGCGAGGAUAUCGGAGACACAUAGUAUGAGAAGGCGCGAACCUGA [Ex NG3 #21] (Eterna round: R96, puzzle: Exclusion NG 3) | – | – | – | 16.4 nM | 11.2 nM | 13.4 nM |
| CGCGAACAUGAGGAUCACCCAUGUGAGGAUAUCAUGCUUCGUAGUAAACUACGAAGUGUGAGAAGGCACAUGCG [Omei Ex1 D5] (Eterna round: R97, puzzle: Exclusion 1) | – | – | – | 297 nM | – | 164 nM |
| CGCGGAUGUAUAUGUCCGCACAUGAGGAUCACCCAUGUAAUAUAAGAUGAUAUUAAACAAAUUUUUGCUUGUCAGUU [Eternabot (L1) Solution 37] (Eterna round: R97, puzzle: Sensor, turn-off variant 1) | – | – | – | 31 nM | – | 38.2 nM |
| CGCUAUAGAGGAUAUACGAGAUCGAAAGAUCGGCGAUCCCUACAUGAGGAUCACCCAUGUAGAAGGCUAUAGCG [Mod 18 - Jieux - Exclusion 2] (Eterna round: R97, puzzle: Exclusion 2) | – | – | – | 83.3 nM | – | 15.7 nM |
| CGCUGGACAGGAUAUGUUCUUGGGCACUUGAGGAUCACCCAAGUCAUCGAGACAACAGGCACAGAAGGGUUUAUGG [salish99_ex5_r4_024] (Eterna round: R97, puzzle: Exclusion 5) | – | – | – | 30.7 nM | – | 38.4 nM |
| CGGAAGAUCGAAGGAUAUUGAGACAAACAGUGUCAAGAAGGUUGGGAGGACACAUGAGGAUCACCCAUGUCCAACUUUUGACGG [Eternabot solution 26] (Eterna round: R96, puzzle: Exclusion NG 1) | – | – | – | 12.7 nM | 9.76 nM | 12.4 nM |
